Among the data in article PMC10663602 are percent of the total protein purified that is pIg values, retold here.

Assay [1] deals with hFcα-tFcµ-chi1 (human | Oncorhynchus mykiss (rainbow trout)). The assay is described as follows: SEC; preparative SEC (Superose 6 Increase 10/300) after Ni-NTA; share of pIg and mIg in the total protein purified (Supplementary Fig. 6).
For assay [2], the target named is hFcα-tFcµ-chi2 (human | Oncorhynchus mykiss (rainbow trout)). Described as above.

B1: hFcα-tFcµ-chi1 (protein)
chain: CHPRLSLHRPALEDLLLGSEANLTCTLTGLRDASGVTFTWTPSSGKSAVQGPPERDLCGCYSVSSVLPGCAEPWNHGKTFTCTAAYPESKTPLTATLSKSGNTFRPEVHLLPPPSEELALNELVTLTCLARGFSPKDVLVRWLQGSQELPREKYLTWASRQEPSQGTTTFAVTSILRVAAEDWKKGDTFSCMVGHEALPLAFTNIIMRTIDRTSNQPNLVNLSLNVPQRCMAQ
modifications: here or on the partner: N-glycosylated; polymeric, about a dimer by SEC-MALS. Table prints the same sequence for chi1 and chi2 / N-glycosylated; polymeric, about a dimer by SEC-MALS. Table prints the same sequence for chi1 a
Take B1: the percent of the total protein purified that is pIg in assay [1] was below 30%.

B2: hFcα-tFcµ-chi2 (protein)
chain: CHPRLSLHRPALEDLLLGSEANLTCTLTGLRDASGVTFTWTPSSGKSAVQGPPERDLCGCYSVSSVLPGCAEPWNHGKTFTCTAAYPESKTPLTATLSKSGNTFRPEVHLLPPPSEELALNELVTLTCLARGFSPKDVLVRWLQGSQELPREKYLTWASRQEPSQGTTTFAVTSILRVAAEDWKKGDTFSCMVGHEALPLAFTNIIMRTIDRTSNQPNLVNLSLNVPQRCMAQ
modifications: here or on the partner: N-glycosylated; P1 about a tetramer, P2 monomer. Table prints the same sequence for chi1 and chi2 / N-glycosylated; P1 about a tetramer, P2 monomer. Table prints the same sequence for chi1 and chi2
In the case of B2, in assay [2], the percent of the total protein purified that is pIg was below 30%.
